The text below walks through data of US8524231.

The target of experiment [1] is biotinylated human IL-1Beta (human) (UniProt P01584). The experiment in a line: competition ELISA: periplasmic Fab extract plus biotinylated IL-1Beta on coated mouse mAb (competitor); reduced signal means competition. Background: ELISA stands for enzyme-linked immunosorbent assay.
The target is the same in experiment [2]. The experiment in a line: ELISA based competition assay against the antagonistic reference mouse mAb (competitor).
For experiment [3] the target is unchanged. The experiment in a line: cell-based or functional assay.

Changes are numbered by the printed parent chain.

Sequence of biotinylated human IL-1Beta (human) (P01584 117-269 limits assumed): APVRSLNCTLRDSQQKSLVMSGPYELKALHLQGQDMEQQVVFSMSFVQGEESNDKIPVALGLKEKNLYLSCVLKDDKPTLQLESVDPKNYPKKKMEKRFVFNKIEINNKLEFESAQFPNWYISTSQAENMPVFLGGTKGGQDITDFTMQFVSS

B1: antagonistic Fab 1A1 (Fab, part only; not given: lambda light chain, constant domains, V domains shown, not shown: a dimerising Fc or GST)
VH: EVQLVESGGGLVQPGGSLRLSCAASGFTFDDYAMSWVRQAPGKGLEWVSTISWNGGATYYAESMKGRFTISRDNAKNTLYLQMNSLKSEDTAVYYCAKPYYSDYVGVEYDYWGQGTQVTVSS
Turning to B1, the signal (OD) in the competition assay in experiment [1] worked out at 0.205 OD.

B2: antagonistic Fab 1C3 (Fab, part only; not given: lambda light chain, constant domains, V domains shown, not shown: a dimerising Fc or GST)
VH: EVQLVESGGGLVQPGGSLRLSCAASGFTFSSYWMYWVRQAPGKGLEWVSAINTGGGRTYYADSVKGRFTISRDNAKNTLYLQMNSLKSEDTAVYYCAKGTSADGSSWYVPADPYDYWGQGTQVTVSS
As for B2, the signal (OD) in the competition assay in experiment [1] is 0.386 OD. The molecule further showed a concentration at which competition is seen in experiment [2] greater than 50 µg/mL. In experiment [3], this molecule returned an IC50 in the bioassay of 3 mg/L.

B3: antagonistic Fab 1B3 (Fab, part only; not given: lambda light chain, constant domains, V domains shown, not shown: a dimerising Fc or GST)
VH: EVQLVQSGAELRNPGASVKVSCKASGYTFTSYYIDWVRQAPGQGLEWMGRIDPEDGGTKYAQKFQGRVTFTADTSTSTAYVELSSLRSEDTAVYYCARSGRYELDYWGQGTQVTVSS
Consider B3, for which the signal (OD) in the competition assay in experiment [1] was 0.444 OD.

B4: Fab 1G1 (clone related to 1B3) (Fab, part only; not given: light chain, V domains shown, part only)
VH: B3 VH with I34T, G57D, S84T, A97L, R101A
For B4, in experiment [1], the signal (OD) in the competition assay came out at 0.498 OD.
